Common to all, as to format: cell-based, Staphylococcus aureus
In one assay the test system is MRSA isolates. Nature of the assay: MIC in CAMHB-HSD against MRSA isolates. To be noted: 51 MRSA isolates. As to the method:
In vitro activity of the modified lysin polypeptide pp296 was assessed against a range of 51 MSSA and 51 MRSA isolates in cation-adjusted Mueller Hinton broth supplemented with 25% horse serum and 0.5 mM DTT (CAMHB-HSD) and compared to WT GMP grade PlySs2 (CF-301). CF-301 and pp296 were each diluted into CAMHB-HSD. For each lysin, the dilution series is set up such that, after a two-fold dilution of each well of the plate, the final concentrations contained: 64, 32, 16, 8, 4, 2, 1, 0.5, 0.25, and 0.125 μg/mL. Each lysin was tested in duplicate against each strain. Preparations were incubated overnight. Growth was visualized as a growth button approximately 2 mm in diameter. The highest dilution that yielded ≥80% growth inhibition was called the minimum inhibitory concentration (MIC). The activity of pp296 was very similar, within one 2-fold dilution, to that of CF-301, as shown below in Table 7.

In assay [1] the test system is 1-day old biofilms formed by MRSA isolates. Nature of the assay: Minimum Biofilm Eradication Concentration (MBEC), MRSA biofilms. To be noted: 24 hours treatment. On the procedure: In some embodiments, the present modified lysin polypeptides are capable of reducing a biofilm. […] Biofilms are then washed and treated with e.g., a 2-fold dilution series of the lysin in TSBg at e.g., 37° C. for 24 hours. After treatment, wells are washed, air-dried at e.g., 37° C. and stained with e.g., 0.05% crystal violet for 10 minutes. After staining, the biofilms are destained in e.g., 33% acetic acid and the OD600 of e.g., extracted crystal violet is determined. The MBEC of each sample is the minimum lysin concentration required to remove >95% of the biofilm biomass assessed by crystal violet quantitation.
The anti-biofilm activity of pp296 was determined against 1-day old biofilms formed by 17 MSSA and 20 MRSA isolates in a 96-well broth microdilution format. The Minimum Biofilm Eradication Concentration (MBEC) values for pp296, compared to wild-type PlySs2 (CF-301), were determined by the following standard methodology. Bacteria were suspended in PBS (0.5 McFarland Units), diluted 1:100 in TSBg (66% tryptic soy broth, 0.2% glucose), added as 0.15 mL aliquots to 96-well polystyrene microplates, and incubated for 24 hours at 37° C. Biofilms were then washed and treated with a 2-fold dilution series of CF-301 or pp296 in TSBg at 37° C. for 24 hours. All samples were examined in triplicate. After treatment, wells were washed, air-dried at 37° C., and stained with 0.05% crystal violet for 10 min The loss of biofilm biomass was assessed visually, and crystal violet was quantitated by solubilization in 33% (vol/vol) acetic acid. The optical density of 600 nm (OD600) was determined using a SpectraMax M3 Multimode microplate reader. The MBEC of each sample was the minimum lysin concentration required to remove >95% of the biofilm biomass assessed by crystal violet quantitation.

Assay [2] relates to 5 MRSA strains and 5 MSSA strains. Nature of the assay: Checkerboard synergy assay with daptomycin or vancomycin. To be noted: MRSA (JMI-41293) strain.

As a reminder, the MIC50 is an inhibitory concentration at the 50% level, which refers to growth in some studies and to a panel of isolates in others. Low values mean higher susceptibility, high ones lower susceptibility. The MIC90 is an inhibitory concentration at the 90% level, which refers to growth in some studies and to a panel of isolates in others. Low values mean higher susceptibility, high ones lower susceptibility.

B1: pp296: Modified PlySs2 lysin, SEQ ID NO: 6: L92W, V104S, V128T, Y137S, Y164K, N184D, S198Q (protein)
chain: MTTVNEALNNVRAQVGSGVSVGNGECYALASWYERMISPDATVGLGAGVGWVSGAIGDTISAKNIGSSYNWQANGWTVSTSGPFKAGQIVTWGATPGNPYGHVSIVEAVDGDRLTILEQNYGGKRYPTRNYYSAASSRQQVVHYITPPGTVAQSAPNLAGSRSKRETGTMTVTVDALNVRRAPDTSGEIVAVYKRGEQFDYDTAIIDVNGYAWVSYIGGSGKRNYVATGATKDGKRFGNAWGTFK
For B1, in the assay on MRSA isolates, the MIC50 stood at 1 µg/mL, the MIC90 amounted to 1 µg/mL and the “MIC Range” value lay in the range of 0.25 to 2 µg/mL. Also, in assay [1], the MBEC50 came to 0.031 µg/mL, the MBEC90 came out at 0.06 µg/mL and the “MBEC Range” value fell in the range of 0.01 to 0.25 µg/mL. Also, the FIC index in assay [2] was 0.75.

The values above are taken from patent US20210032294A1, “MODIFIED PlySs2 LYSINS AND USES THEREOF” (CONTRAFECT CORPORATION, priority 2018, published 2021).
